The FLAb antibody collection (doi:10.7554/elife.23156)

B1: scFv; the commonest letter at each place (parent)
chain 1: EVKLDETGGGLVQPGRPMKLSCVASGFTFSDYWMNWVRQSPEKGLEWVAQIRNKPYNYETYYSDSVKGRFTISRDDSKSSVYLQMNNLRVEDMGIYYCTGSYYGMDYWGQGTSVTVS
chain 2: DVVMTQTPLSLPVSLGDQASISCRSSQSLVHSNGNTYLRWYLQKPGQSPKVLIYKVSNRFSGVPDRFSGSGSGTDFTLKISRVEAEDLGVYFCSQSTHVPWTFGGGTKLEIK

Key:
[1] = variants of: B1; test: Kd (Tite-Seq); settings: with fluorescein; format: scFv 4-4-20, heavy + light
[2] = variants of: B1; test: yeast surface expression (ratio to wild type); higher = more expressed; settings: format: scFv 4-4-20, heavy + light

Variant | Kd [1] | yeast surface expression [2]
chain 1 D31K | 0.00154 µM | 0.867
chain 1 D31L | 0.00638 µM | 0.509
chain 1 D31P | ≥ 10 µM | 0.853
chain 1 D106G W108E | ≥ 10 µM | 0.575
chain 1 F29A Y32N | ≥ 10 µM | 0.832
chain 1 G104M W108V G109T | ≥ 10 µM | 0.212
chain 1 D31K W33I M34N | ≥ 10 µM | 0.395
chain 1 N35C V37M | ≥ 10 µM | 0.689
chain 1 M105T Y107C | ≥ 10 µM | 0.675
chain 1 G100W | ≥ 10 µM | 0.491
chain 1 G100A | 0.0017 µM | 0.964
chain 1 G104T D106C Y107Q | ≥ 10 µM | 0.31
chain 1 M34F V37C | 0.00104 µM | 0.75
chain 1 M34H N35P | ≥ 10 µM | 2.76
chain 1 M105V D106Y | ≥ 10 µM | 0.489
chain 1 M105I Y107W | 0.105 µM | 0.669
chain 1 M105F D106C | ≥ 10 µM | 1.03
chain 1 F29L Y32F | ≥ 10 µM | 0.72
chain 1 D106S | 0.00279 µM | 1.16

Variant | Kd [1] | yeast surface expression [2]
chain 1 G109R | ≥ 10 µM | 0.297
chain 1 G109L | ≥ 10 µM | 0.217
chain 1 G109M | ≥ 10 µM | 0.213
chain 1 F29V M34E | ≥ 10 µM | 0.715
chain 1 G100Q D106P | ≥ 10 µM | 0.222
chain 1 G100P G104H | ≥ 10 µM | 0.68
chain 1 G100D S101I | ≥ 10 µM | 0.0999
chain 1 F29L M34D | ≥ 10 µM | 0.656
chain 1 D31S M34R | ≥ 10 µM | 0.424
chain 1 F29L D31S | 0.972 µM | 0.743
chain 1 G100N D106N | ≥ 10 µM | 0.287
chain 1 G100Y G109P | ≥ 10 µM | 0.22
chain 1 D106H Y107D | ≥ 10 µM | 0.284
chain 1 D31A M34L V37G | 0.021 µM | 0.0111
chain 1 G104K D106H | ≥ 10 µM | 0.594
chain 1 N35E W36E | ≥ 10 µM | 1.23
chain 1 F29I W33H M34P | ≥ 10 µM | 0.518
chain 1 F29E N35T | ≥ 10 µM | 0.578
chain 1 G100I W108R | ≥ 10 µM | 0.781

Variant | Kd [1] | yeast surface expression [2]
chain 1 M105P W108S | ≥ 10 µM | 0.621
chain 1 D106L W108C | ≥ 10 µM | 0.234
chain 1 M105K Y107L G109V | ≥ 10 µM | 0.223
chain 1 D31E M34N | ≥ 10 µM | 0.61
chain 1 D106A W108V | ≥ 10 µM | 0.529
chain 1 G104Q G109Q | ≥ 10 µM | 0.248
chain 1 G104T D106T Y107L | ≥ 10 µM | 0.547
chain 1 G104D | ≥ 10 µM | 0.918
chain 1 G104R | ≥ 10 µM | 0.626
chain 1 G104L | ≥ 10 µM | 0.556
chain 1 M105R G109T | ≥ 10 µM | 0.344
chain 1 M105Q G109Y | ≥ 10 µM | 0.231
chain 1 G100A S101L | ≥ 10 µM | 0.553
chain 1 F29R V37E | 1.08 µM | 0.545
chain 1 F29R V37N | ≥ 10 µM | 0.445
chain 1 G104D G109L | ≥ 10 µM | 0.236
chain 1 M105G D106Q | ≥ 10 µM | 0.514
chain 1 G100P W108M | ≥ 10 µM | 0.572

Continued, in another order:

Kd [1] | Variant | yeast surface expression [2]
≥ 10 µM | chain 1 W36S | 0.813
≥ 10 µM | chain 1 Y32H M34Q | 0.862
≥ 10 µM | chain 1 Y32L N35F | 0.363
0.018 µM | chain 1 Y103I | 0.964
≥ 10 µM | chain 1 S30D W36R | 2.14
≥ 10 µM | chain 1 S101G Y103C | 0.678
0.00104 µM | chain 1 S30A M34C | 0.868
≤ 0.000316 µM | chain 1 W108F | 0.644
0.0221 µM | chain 1 W108K | 0.504
≤ 0.000316 µM | chain 1 W108Y | 0.963
≤ 0.000316 µM | chain 1 W108L | 0.827
0.00827 µM | chain 1 S30R D31R | 0.684
≥ 10 µM | chain 1 S101L D106G | 0.289
≥ 10 µM | chain 1 W108D G109Y | 0.271
≥ 10 µM | chain 1 W108D G109I | 0.209
≥ 10 µM | chain 1 Y32V V37L | 0.677
≥ 10 µM | chain 1 T28K W33D | 0.981
≥ 10 µM | chain 1 T28K W33S | 0.995
≥ 10 µM | chain 1 T28L N35D W36N | 0.674
≥ 10 µM | chain 1 W108E G109K | 0.403

Kd [1] | Variant | yeast surface expression [2]
≥ 10 µM | chain 1 W36K V37H | 0.773
0.0372 µM | chain 1 S30V D31M | 0.223
≥ 10 µM | chain 1 S101R G109M | 0.251
≥ 10 µM | chain 1 Y103C D106L | 0.589
≥ 10 µM | chain 1 S30Q D31E N35K | 2.59
≥ 10 µM | chain 1 N35F V37D | 0.704
≥ 10 µM | chain 1 S101H Y103Q | 0.871
≥ 10 µM | chain 1 W33N V37Q | 0.415
≥ 10 µM | chain 1 T28K N35M V37L | 0.642
≥ 10 µM | chain 1 S101K Y103S | 0.461
≥ 10 µM | chain 1 S101Q | 0.788
≥ 10 µM | chain 1 S101K | 0.463
≥ 10 µM | chain 1 S101E | 0.838
≥ 10 µM | chain 1 Y103N G104P | 0.478
≥ 10 µM | chain 1 S101Y Y102P | 0.326
≥ 10 µM | chain 1 Y103A W108D | 0.576
2.01 µM | chain 1 Y103C G104H | 0.403
≥ 10 µM | chain 1 W108P G109N | 0.473
≥ 10 µM | chain 1 S101Y Y103N D106L | 0.957
1.63 µM | chain 1 Y102V M105Q | 0.736

Kd [1] | Variant | yeast surface expression [2]
0.00215 µM | chain 1 S30W | 0.701
0.00122 µM | chain 1 S30N | 0.889
0.0896 µM | chain 1 T28Q Y32S | 0.926
0.00352 µM | chain 1 Y32F | 0.989
≥ 10 µM | chain 1 Y103P W108M | 0.463
≥ 10 µM | chain 1 S101V M105H W108H | 0.3
≥ 10 µM | chain 1 S101W D106S | 0.516
≥ 10 µM | chain 1 Y107N W108D G109C | 0.313
≥ 10 µM | chain 1 T28C V37N | 0.357
3.94 µM | chain 1 Y102H Y103C | 0.682
2.47 µM | chain 1 Y107R G109S | 0.665
0.000333 µM | chain 1 Y103M W108M | 1.13
≥ 10 µM | chain 1 W33S W36I | 0.619
≥ 10 µM | chain 1 N35V V37Y | 0.727
≥ 10 µM | chain 1 Y102T Y103R | 1.21
≥ 10 µM | chain 1 S101D G104H D106A | 0.353
≥ 10 µM | chain 1 W33Q W36K | 0.466
≥ 10 µM | chain 1 N35Y | 0.697
≥ 10 µM | chain 1 N35I | 0.652
≥ 10 µM | chain 1 Y32C M34K | 1.04
